The assay concerns the target HIV-1 P24重组蛋白 (原核细胞大肠杆菌表达的HIV-1 P24全长蛋白) (HIV-1) (UniProt P04591). Kind of assay: indirect ELISA, serial two-fold dilution of the antibody. For orientation: ELISA stands for enzyme-linked immunosorbent assay.

B1: 抗HIV-1 P24兔单克隆抗体OTIR5D12 (antibody, V domains shown)
VH: QSLEESGGRLVTPGTPLTLTCTASGFSLNSYYMTWVRQAPGKGLEWIGILDTSGSTDYASWAKGRFTISKTSTTVDLKVTSPTAADTATYFCARGAYYSAYGDAWGQGTLVTVSS
VL: AQVLTQTPSPVSAVLGGTVTINCQSSQSVYNSNWLSWFQQKPGQPPKLLIYKASNLASGVPSRFKGSGSGTQFTLTISSVQCDDAATYYCQGGYNNGDGFGGGTEVVVK
B1 showed a 效价 (antibody titer) of 6.6e+06.

The record behind these values is CN113683688A.
